The source of these data is patent US20230357429A1 (JANUX THERAPEUTICS, published 2023).

Positions count from the first letter of the chain named. Numbers in names are those of the source. Where two headings read alike, the source gives them in different places. Where no end group is shown, it is not given here.

In assay [1] the target is T1, Human TROP2 ECD (31-274 AA), biotinylated (human, UniProt P09758 31-274, biotinylated (site not stated)).
T1 construct: also called tumor-associated calcium signal transducer 2; Human TROP2-biotin
T1 sequence: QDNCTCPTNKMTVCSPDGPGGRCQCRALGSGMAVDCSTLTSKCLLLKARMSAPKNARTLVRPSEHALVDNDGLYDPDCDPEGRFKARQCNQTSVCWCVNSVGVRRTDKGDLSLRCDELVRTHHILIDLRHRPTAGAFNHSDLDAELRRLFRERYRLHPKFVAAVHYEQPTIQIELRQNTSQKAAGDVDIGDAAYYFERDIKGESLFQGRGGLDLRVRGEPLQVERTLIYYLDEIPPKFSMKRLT
Briefly: ELISA on immobilized TROP2. (In an ELISA, binding on a coated surface is turned into a signal by an enzyme label.)

Assay [2] concerns the target T2, CD3 (biotinylated CD3 antigen) (human, UniProt P07766 23-126, limits assumed, biotinylated (site not stated)).
T2 construct: also called CD3ε; human CD3
As to the kind of experiment: ELISA, captured biotin-CD3.

The target in assay [3] is T3, Human TROP2 ECD (31-274 AA), biotinylated (human, UniProt P09758 31-274, biotinylated (site not stated)).
T3 construct: also called TROP2-biotin; Trop2-biotin
T3 sequence: T1 sequence
Briefly: ELISA, captured biotin-TROP2.

A further assay deals with T4, Human TROP2 Full length (human, UniProt P09758 31-323).
T4 sequence: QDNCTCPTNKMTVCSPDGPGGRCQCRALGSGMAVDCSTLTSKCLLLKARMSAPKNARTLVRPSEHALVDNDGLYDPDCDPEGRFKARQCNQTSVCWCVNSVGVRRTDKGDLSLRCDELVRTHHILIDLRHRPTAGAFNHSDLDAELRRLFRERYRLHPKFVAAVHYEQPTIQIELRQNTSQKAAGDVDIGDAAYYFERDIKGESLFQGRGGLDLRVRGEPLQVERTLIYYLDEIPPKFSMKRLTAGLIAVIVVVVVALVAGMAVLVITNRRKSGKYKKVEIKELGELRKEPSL
Briefly: cell-based or functional assay.

The target of another assay is T5, Cyno TROP2 Full length (cynomolgus monkey, UniProt P09758 31-323 (human entry)).
T5 chain: T4 sequence with M32V, S63N, I200V, M262V, T268S
As to the kind of experiment: cell-based or functional assay.

Assay [4] addresses T1, Human TROP2 ECD (31-274 AA), …. As to the kind of experiment: ELISA on immobilized TROP2; binder pre-treated with MTSP1.
Assay [5] has the same target. The description is as above. This is another data set of the same source.
Assay [6] deals with T6, Peptide-65 (cysteine pairing not given here; also: biotinylated, site not given here).
T6 construct: mask peptide for the CD3 scFv
T6 peptide: QGCGTIADPEPHCW
Briefly: ELISA, TCE on captured biotin-peptide.

Assay [7] concerns the target T7, Peptide-69 (cysteine pairing not given here; also: biotinylated, site not given here).
T7 construct: mask peptide for the CD3 scFv
T7 peptide: SECLVDLQSDPCYW
As to the kind of experiment: ELISA, TCE on captured biotin-peptide.

Assay [8] addresses T8, Peptide-71 (cysteine pairing not given here; also: biotinylated, site not given here).
T8 construct: mask peptide for the CD3 scFv
T8 peptide: VDCGPDGDESILCY
Briefly: ELISA, TCE on captured biotin-peptide.

In assay [9] the target is T9, Peptide-72 (cysteine pairing not given here; also: biotinylated, site not given here).
T9 construct: mask peptide for the CD3 scFv
T9 peptide: AYCGPEFDESVGCM
As to the kind of experiment: ELISA, TCE on captured biotin-peptide.

Assay [10] has as its target T10, Peptide-66 (cysteine pairing not given here; also: biotinylated, site not given here).
T10 construct: mask peptide for the CD3 scFv
T10 peptide: GSQCLGPEWEVCPY
As to the kind of experiment: ELISA, TCE on captured biotin-peptide.

The target in assay [11] is T11, Peptide-75 (cysteine pairing not given here; also: biotinylated, site not given here).
T11 construct: mask peptide for the CD3 scFv
T11 peptide: GSACLGPEWEVCPY
Briefly: ELISA, TCE on captured biotin-peptide.

In assay [12] the target is T12, Peptide-68 (cysteine pairing not given here; also: biotinylated, site not given here).
T12 construct: mask peptide for the CD3 scFv
T12 peptide: DWCWYSPDNDGLCD
Briefly: ELISA, TCE on captured biotin-peptide.

Assay [13] has as its target T13, Peptide-67 (cysteine pairing not given here; also: biotinylated, site not given here).
T13 construct: mask peptide for the CD3 scFv
T13 peptide: VYCGPEFDESVGCM
As to the kind of experiment: ELISA, TCE on captured biotin-peptide.

Assay [14] addresses T14, Peptide-74 (cysteine pairing not given here; also: biotinylated, site not given here).
T14 construct: mask peptide for the CD3 scFv
T14 peptide: ASQCLGPEWEVCPY
Briefly: ELISA, TCE on captured biotin-peptide.

The target of assay [15] is T2, CD3 (biotinylated CD3 antigen). Briefly: ELISA, TCE on captured biotin-CD3.
For assay [16], the target named is T15, Peptide-73 (cysteine pairing not given here; also: biotinylated, site not given here).
T15 construct: mask peptide for the CD3 scFv
T15 peptide: VYCGPEFDESVGCA
Briefly: ELISA, TCE on captured biotin-peptide.

The target in assay [17] is T6, Peptide-65. As to the kind of experiment: ELISA, TCE on captured biotin-peptide.
The next assay deals with T16, Peptide-70 (cysteine pairing not given here; also: biotinylated, site not given here).
T16 construct: mask peptide for the CD3 scFv
T16 peptide: YLCGPDGDETLACY
Briefly: ELISA, TCE on captured biotin-peptide.

Assay [18] addresses T8, Peptide-71. Briefly: ELISA, TCE on captured biotin-peptide.
For assay [19], the target named is T9, Peptide-72. As to the kind of experiment: ELISA, TCE on captured biotin-peptide.
Assay [20] has as its target T10, Peptide-66. Briefly: ELISA, TCE on captured biotin-peptide.
Assay [21] addresses T11, Peptide-75. As to the kind of experiment: ELISA, TCE on captured biotin-peptide.
Assay [22] deals with T12, Peptide-68. As to the kind of experiment: ELISA, TCE on captured biotin-peptide.
For assay [23], the target named is T13, Peptide-67. As to the kind of experiment: ELISA, TCE on captured biotin-peptide.
The target of assay [24] is T14, Peptide-74. Briefly: ELISA, TCE on captured biotin-peptide.
The target in assay [25] is T2, CD3 (biotinylated CD3 antigen). As to the kind of experiment: ELISA, TCE on captured biotin-CD3. The source holds these as a separate data set.
Assay [26] has as its target T7, Peptide-69. As to the kind of experiment: ELISA, TCE on captured biotin-peptide.
In assay [27] the target is T15, Peptide-73. As to the kind of experiment: ELISA, TCE on captured biotin-peptide.
Assay [28] deals with T2, CD3 (biotinylated CD3 antigen). As to the kind of experiment: ELISA: biotinylated CD3 captured on neutravidin plates, TCE titrated, HRP secondary antibody.

T2 sequence (P07766 23-126 limits assumed): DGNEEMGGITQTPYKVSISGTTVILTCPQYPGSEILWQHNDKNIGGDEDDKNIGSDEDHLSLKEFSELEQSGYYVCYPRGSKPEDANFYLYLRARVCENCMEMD

B1: PC-1 (bispecific antibody)
light: GGVDFCKIYSWPVCHQGGGGSGGLSGRSDAGSPLGLAGSGGSDIQLTQSPSSLSASVGDRVSITCKASQDVSIAVAWYQQKPGKAPKLLIYSASYRYTGVPDRFSGSGSGTDFTLTISSLQPEDFAVYYCQQHYITPLTFGAGTKVEIKRTVAAPSVFIFPPSDEQLKSGTASVVCLLNNFYPREAKVQWKVDNALQSGNSQESVTEQDSKDSTYSLSSTLTLSKADYEKHKVYACEVTHQGLSSPVTKSFNRGEC
heavy: not shown
notes: anti-TROP2 wt
What is called EC50 is the concentration that produces a half-maximal response. In the case of B1, the response in assay [1] was half-maximal at 49.4 nM (EC50).

B2: PC-31 (anti-TROP2 D109A; anti-CD3 F104A), masked polypeptide complex (bispecific antibody)
light: B1 light with K7G, I8L, S10H, V13I, H15Y
heavy: not shown
notes: LC: TROP2 mask peptide + cleavable linker + anti-TROP2 LC; HC: anti-albumin single domain + CD3 mask peptide + cleavable linker + anti-CD3 scFv + anti-TROP2 Fab HC
Regarding B2, the values for the 50% effective concentration (EC50) in assay [2] and in assay [3] were 1080 nM and 694 nM, respectively.

B3: TCE-8 (bispecific antibody)
light: DIQLTQSPSSLSASVGDRVSITCKASQDVSIAVAWYQQKPGKAPKLLIYSASYRYTGVPDRFSGSGSGTDFTLTISSLQPEDFAVYYCQQHYITPLTFGAGTKVEIKRTVAAPSVFIFPPSDEQLKSGTASVVCLLNNFYPREAKVQWKVDNALQSGNSQESVTEQDSKDSTYSLSSTLTLSKADYEKHKVYACEVTHQGLSSPVTKSFNRGEC
heavy: not shown
For B3, the “HCT116 Cytotoxicity EC50 (pM)” value with Human TROP2 Full length came to 83 pM. Also, the “CyTROP2 HEK293 EC50 (pM)” value with Cyno TROP2 Full length was determined as 0.1 pM.

B4: PC-5 + MTSP1 (bispecific antibody)
light: B3 light
chain: not shown
modifications: Protease-treated product: both masks and the anti-albumin domain are cut off in the cleavable linkers.
notes: not shown: The few linker residues left at the N-terminus of each chain after the MTSP1 cut
On to B4, for which, in [4], the half-maximal effective concentration (EC50) came out at 0.25 nM.

B5: PC-1 + MTSP1 (bispecific antibody)
light: B3 light
chain: not shown
modifications: Protease-treated product: both masks and the anti-albumin domain are cut off in the cleavable linkers.
notes: as for B4
For the molecule B5, the EC50 in [5] is 0.48 nM.

B6: TCE-10 (anti-CD3 scFv R100A; anti-TROP2 wt) (bispecific antibody)
light: B3 light
heavy: not shown
notes: scFv on the Fab heavy chain; also called TCE-10 (R100A)
On to B6, for which the EC50 with Peptide-65 [6] was found to be 473 nM; with Peptide-69 [7], 8.73 nM; with Peptide-71 [8], 0.63 nM; in the assay with Peptide-72 [9] it was 1.85 nM; with Peptide-66 [10], 0.58 nM; with Peptide-75 [11], 0.76 nM. Further, the 50% effective concentration (EC50) is 1.78 nM with Peptide-68 [12], 1.76 nM in the assay with Peptide-67 [13], 0.68 nM with Peptide-74 [14] and 0.35 nM in [15].

B7: TCE-22 (anti-CD3 scFv W112A; anti-TROP2 wt) (bispecific antibody)
light: B3 light
heavy: not shown
notes: scFv on the Fab heavy chain; also called TCE-22 (W112A)
With B7, the half-maximal effective concentration (EC50) is 12.2 nM with Peptide-73 [16]; 220 nM with Peptide-65 [17]; 0.59 nM in the assay with Peptide-70; 4.87 nM with Peptide-71 [18]; 11.2 nM in the assay with Peptide-72 [19]; 26.4 nM with Peptide-66 [20]. Also, the EC50 amounted to 38.2 nM in the assay with Peptide-75 [21]; 794 nM with Peptide-68 [22]; 10.5 nM with Peptide-67 [23]; 23.4 nM with Peptide-74 [24]; 0.95 nM in assay [25].

B8: TCE-21 (anti-CD3 scFv Y111A; anti-TROP2 wt) (bispecific antibody)
light: B3 light
heavy: not shown
notes: scFv on the Fab heavy chain; also called TCE-21 (Y111A)
For the molecule B8, the concentration for a half-maximal effect (EC50) stood at 1080 nM with Peptide-65 [17]; 572 nM with Peptide-69 [26]; 11.9 nM with Peptide-70; 106 nM with Peptide-71 [18]; 76.9 nM in the assay with Peptide-72 [19]; 49.1 nM in the assay with Peptide-66 [20]. For the same molecule, the EC50 worked out at 95.6 nM with Peptide-75 [21]; 381 nM with Peptide-68 [22]; 77.7 nM in the assay with Peptide-67 [23]; 64.2 nM in the assay with Peptide-74 [24]; 592 nM in assay [25].

B9: TCE-31 (anti-CD3 scFv W238A; anti-TROP2 wt) (bispecific antibody)
light: B3 light
heavy: not shown
notes: scFv on the Fab heavy chain; also called TCE-31 (W238A)
As for B9, the 50% effective concentration (EC50) with Peptide-69 [26] was 0.29 nM; with Peptide-70, 8 nM; with Peptide-71 [18], 112 nM; in the assay with Peptide-72 [19], 5.66 nM; in the assay with Peptide-66 [20] it was 6.34 nM; with Peptide-75 [21] it was 7.08 nM. Further, the EC50 in the assay with Peptide-68 [22] was found to be 2.29 nM; with Peptide-67 [23], 5.96 nM; in the assay with Peptide-74 [24] it was 5.33 nM; in the assay with Peptide-73 [27] it was 7.03 nM; in assay [25], 24 nM; in assay [28], 8.65 nM.

B10: TCE-27 (anti-CD3 scFv Y234A; anti-TROP2 wt) (bispecific antibody)
light: B3 light
heavy: not shown
notes: scFv on the Fab heavy chain
Regarding B10, the concentration giving a half-maximal response (EC50) in the assay with Peptide-73 [27] amounted to 0.35 nM.
